The target in one experiment is Pre1-FLAG (yeast) (UniProt P22141). Put plainly: co-immunoprecipitation on FLAG-agarose; amount left on the beads after 18 hours at 4° C.
Another experiment addresses T1, Cim5 (yeast, UniProt P33299 1-467).
T1 construct: Endogenous protein in yeast extracts, detected by immunoblot as part of the proteasome complex
T1 sequence (looked up): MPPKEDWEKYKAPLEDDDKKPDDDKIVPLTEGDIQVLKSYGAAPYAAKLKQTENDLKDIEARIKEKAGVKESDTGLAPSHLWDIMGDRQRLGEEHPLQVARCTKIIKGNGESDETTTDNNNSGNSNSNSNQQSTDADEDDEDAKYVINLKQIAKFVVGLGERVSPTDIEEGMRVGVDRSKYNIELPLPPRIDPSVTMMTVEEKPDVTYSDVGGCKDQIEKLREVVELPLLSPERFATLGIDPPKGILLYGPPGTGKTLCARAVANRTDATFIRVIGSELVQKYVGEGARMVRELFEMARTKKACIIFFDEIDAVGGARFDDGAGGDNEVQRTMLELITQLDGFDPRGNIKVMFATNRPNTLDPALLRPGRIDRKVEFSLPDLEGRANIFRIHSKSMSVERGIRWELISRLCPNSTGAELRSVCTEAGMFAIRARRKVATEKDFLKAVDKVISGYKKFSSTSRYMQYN
Put plainly: GST pull-down from yeast extracts, Cim3 and Cim5 immunoblot (FIG. 13A, lane 5). On the procedure:
(§1) GST linked proteins were expressed in yeast and purified on glutathione-SEPHAROSE. Proteins retained on the beads were resolved in SDS-polyacrylamide gels, transferred to nitrocellulose, and incubated with antisera specific to proteasome subunits Cim3 and Cim5. The blot was developed by enhanced chemiluminescence ([…]). […] Yeast strains expressing the GST linked proteins as well as Pre1-FLAG, FIG. 13B. The blot was developed with anti-FLAG antiserum (KODAK). The position of molecular weight markers are indicated.
(§2) Extracts were incubated with glutathione-SEPHAROSE, and bound proteins separated in a SDS-polyacrylamide gel, transferred to nitrocellulose and analyzed by immunological methods. […] The interacting proteins were analyzed via western blot analysis with Cim5 antibodies which cross-react with Mss1, a human counterpart of yeast Cim5 (Ghislain, et al. (1993) Nature 366:358-361).

The target of a further experiment is T2, Cim3 (yeast, UniProt Q01939 2-405).
T2 construct: Endogenous protein in yeast extracts, detected by immunoblot as part of the proteasome complex; also called Sug1
T2 sequence (looked up): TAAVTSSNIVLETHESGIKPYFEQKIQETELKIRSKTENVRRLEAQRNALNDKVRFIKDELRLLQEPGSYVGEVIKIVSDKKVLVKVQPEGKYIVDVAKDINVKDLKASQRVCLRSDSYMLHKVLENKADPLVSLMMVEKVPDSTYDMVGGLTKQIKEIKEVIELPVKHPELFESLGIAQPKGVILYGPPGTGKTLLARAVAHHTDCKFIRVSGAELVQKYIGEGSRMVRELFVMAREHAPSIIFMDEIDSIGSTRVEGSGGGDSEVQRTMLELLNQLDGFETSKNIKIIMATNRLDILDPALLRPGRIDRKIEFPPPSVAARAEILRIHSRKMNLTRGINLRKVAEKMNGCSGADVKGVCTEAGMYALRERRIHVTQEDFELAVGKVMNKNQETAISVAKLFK
Described as above. Here is the method:
as §1, §2

Sequence of Pre1-FLAG (yeast) (P22141 whole entry): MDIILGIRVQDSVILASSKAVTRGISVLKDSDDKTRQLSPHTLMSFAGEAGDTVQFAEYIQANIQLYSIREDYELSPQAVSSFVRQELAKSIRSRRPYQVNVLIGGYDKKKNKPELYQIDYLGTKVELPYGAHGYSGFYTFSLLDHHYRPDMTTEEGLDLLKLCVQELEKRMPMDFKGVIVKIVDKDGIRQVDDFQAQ

In the experiment with Pre1-FLAG (yeast), “native Rad23 (from UniProt P32628 1-398)” registered a percent of cellular Rad23 precipitated with Pre1-FLAG of 5%.

B1: GST-UbL^HRA (other)
chain: MAVTITLKTLQQQTFKIRMEPDETVKVLKEKIEAEKGRDAFPVAGQKLIYAGKILSDDVPIRDYRIDEKNFVVVMVTKTKA
notes: The UbL is linked to the C-terminus of GST; also called ubiquitin-like domain of HHR23A linked to GST; not shown: glutathione S-transferase (GST)
B1: the binding result with Cim5 and in the experiment with Cim3 was “no binding” in each case.
